Data taken from article PMC5655137.

Target: E. coli small ribosomal 30S subunit (E. coli (MRE600)) (UniProt P0AG67)

Sequence of E. coli RNA polymerase core complex (P0A7Z4 whole entry): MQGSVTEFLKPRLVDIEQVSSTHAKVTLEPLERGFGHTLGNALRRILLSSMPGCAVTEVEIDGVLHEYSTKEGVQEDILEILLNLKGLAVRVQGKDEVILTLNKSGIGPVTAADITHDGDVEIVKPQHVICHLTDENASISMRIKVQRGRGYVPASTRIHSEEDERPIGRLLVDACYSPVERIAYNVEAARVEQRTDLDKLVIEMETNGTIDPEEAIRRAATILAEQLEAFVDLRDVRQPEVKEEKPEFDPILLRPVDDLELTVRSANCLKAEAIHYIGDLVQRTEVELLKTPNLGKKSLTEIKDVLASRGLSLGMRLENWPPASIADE
Sequence of E. coli RNA polymerase core complex (P0A8V2 2-1341): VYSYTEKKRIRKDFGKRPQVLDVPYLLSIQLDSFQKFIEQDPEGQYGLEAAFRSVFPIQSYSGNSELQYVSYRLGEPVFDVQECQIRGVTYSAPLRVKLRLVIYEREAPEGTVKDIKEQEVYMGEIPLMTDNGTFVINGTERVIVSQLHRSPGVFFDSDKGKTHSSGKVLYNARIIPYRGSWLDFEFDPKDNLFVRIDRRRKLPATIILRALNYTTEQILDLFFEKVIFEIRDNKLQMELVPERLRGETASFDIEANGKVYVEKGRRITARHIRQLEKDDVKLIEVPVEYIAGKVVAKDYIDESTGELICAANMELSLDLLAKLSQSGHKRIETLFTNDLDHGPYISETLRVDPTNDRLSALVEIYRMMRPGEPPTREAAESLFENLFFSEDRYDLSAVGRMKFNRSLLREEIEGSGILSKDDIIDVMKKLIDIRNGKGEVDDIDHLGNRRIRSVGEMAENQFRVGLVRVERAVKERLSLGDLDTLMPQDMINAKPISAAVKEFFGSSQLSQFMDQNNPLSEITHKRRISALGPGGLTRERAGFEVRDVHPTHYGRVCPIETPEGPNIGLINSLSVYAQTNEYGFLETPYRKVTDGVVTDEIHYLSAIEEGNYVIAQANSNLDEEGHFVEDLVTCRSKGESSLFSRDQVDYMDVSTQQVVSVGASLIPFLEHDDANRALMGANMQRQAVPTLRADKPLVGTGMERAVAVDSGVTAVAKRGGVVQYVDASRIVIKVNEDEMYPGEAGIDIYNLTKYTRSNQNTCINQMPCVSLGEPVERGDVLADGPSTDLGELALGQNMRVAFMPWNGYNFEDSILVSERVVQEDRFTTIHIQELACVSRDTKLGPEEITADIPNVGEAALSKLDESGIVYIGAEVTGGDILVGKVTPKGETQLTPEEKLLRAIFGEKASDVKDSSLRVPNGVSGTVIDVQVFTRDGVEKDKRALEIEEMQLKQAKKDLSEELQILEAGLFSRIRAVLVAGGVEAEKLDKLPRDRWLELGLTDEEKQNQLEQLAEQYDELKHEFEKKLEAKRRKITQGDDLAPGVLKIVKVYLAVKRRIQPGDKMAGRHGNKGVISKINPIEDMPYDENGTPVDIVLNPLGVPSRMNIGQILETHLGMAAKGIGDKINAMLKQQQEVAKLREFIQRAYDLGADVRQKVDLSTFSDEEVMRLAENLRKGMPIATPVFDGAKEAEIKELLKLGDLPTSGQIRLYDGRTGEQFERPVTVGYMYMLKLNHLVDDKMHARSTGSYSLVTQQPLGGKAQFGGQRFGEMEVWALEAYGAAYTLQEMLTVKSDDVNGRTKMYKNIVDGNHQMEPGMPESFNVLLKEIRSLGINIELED
Sequence of E. coli RNA polymerase core complex (P0A8T7 8-1376): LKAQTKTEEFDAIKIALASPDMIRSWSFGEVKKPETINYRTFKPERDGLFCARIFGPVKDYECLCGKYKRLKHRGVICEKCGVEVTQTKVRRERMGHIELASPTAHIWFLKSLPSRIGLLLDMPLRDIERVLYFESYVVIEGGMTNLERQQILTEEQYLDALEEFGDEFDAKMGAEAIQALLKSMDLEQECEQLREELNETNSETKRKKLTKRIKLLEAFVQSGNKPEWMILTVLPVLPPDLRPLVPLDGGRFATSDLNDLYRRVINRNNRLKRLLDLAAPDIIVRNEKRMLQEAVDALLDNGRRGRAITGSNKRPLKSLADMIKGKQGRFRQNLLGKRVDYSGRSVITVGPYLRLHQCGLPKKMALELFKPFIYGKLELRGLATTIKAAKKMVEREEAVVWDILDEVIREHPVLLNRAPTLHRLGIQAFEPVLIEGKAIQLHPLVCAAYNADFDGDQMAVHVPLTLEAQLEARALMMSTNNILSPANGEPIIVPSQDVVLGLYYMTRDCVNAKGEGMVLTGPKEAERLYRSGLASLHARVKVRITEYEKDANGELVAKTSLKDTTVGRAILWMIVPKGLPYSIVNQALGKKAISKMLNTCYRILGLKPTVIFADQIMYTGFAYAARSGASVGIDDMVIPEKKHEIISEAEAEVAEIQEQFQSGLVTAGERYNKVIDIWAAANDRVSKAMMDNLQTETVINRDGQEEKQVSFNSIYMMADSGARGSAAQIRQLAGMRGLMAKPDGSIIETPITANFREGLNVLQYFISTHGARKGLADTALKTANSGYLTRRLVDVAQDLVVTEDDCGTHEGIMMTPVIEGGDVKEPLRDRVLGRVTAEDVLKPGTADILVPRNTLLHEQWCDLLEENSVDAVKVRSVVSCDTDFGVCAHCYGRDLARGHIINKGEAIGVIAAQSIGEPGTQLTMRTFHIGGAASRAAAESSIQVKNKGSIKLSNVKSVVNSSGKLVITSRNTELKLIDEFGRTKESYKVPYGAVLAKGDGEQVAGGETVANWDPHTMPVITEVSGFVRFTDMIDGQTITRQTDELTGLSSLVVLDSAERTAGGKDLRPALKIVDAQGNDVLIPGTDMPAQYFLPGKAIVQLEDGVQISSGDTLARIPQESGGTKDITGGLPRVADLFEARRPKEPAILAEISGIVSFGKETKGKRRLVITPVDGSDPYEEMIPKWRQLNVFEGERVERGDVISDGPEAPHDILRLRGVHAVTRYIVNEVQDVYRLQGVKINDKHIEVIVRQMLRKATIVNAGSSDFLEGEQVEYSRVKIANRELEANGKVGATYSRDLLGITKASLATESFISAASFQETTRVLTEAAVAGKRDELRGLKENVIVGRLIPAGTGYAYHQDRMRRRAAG
Sequence of E. coli RNA polymerase core complex (P0A800 whole entry): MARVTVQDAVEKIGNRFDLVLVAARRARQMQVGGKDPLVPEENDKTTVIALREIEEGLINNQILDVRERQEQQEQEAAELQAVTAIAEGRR

“E. coli RNA polymerase core complex (from UniProt P0A7Z4 1-329; P0A8V2 2-1341; P0A8T7 8-1376; P0A800 1-91) (complex; C-terminal 6xHis tag on beta' omitted; Zn-bound beta' Zn-finger; core without sigma; K12 sequences assumed)” was tested, and the Kd was 21 nM.
